Data reported in paper PMC6859074.

What was measured:
[1] = target: 14 subunit-CCAN complex (constitutive centromere associated network), S. cerevisiae (S. cerevisiae) (UniProt P35201); experiment: SEC-MALS
[2] = target: 14 subunit-CCAN complex (constitutive centromere associated network), S. cerevisiae (S. cerevisiae) (UniProt P35201); experiment: cryo-EM structure
[3] = target: S. cerevisiae Cenp-A nucleosome wrapped with the 147 bp Widom 601 sequence (S. cerevisiae) (UniProt P36012); experiment: SEC-MALS + AUC
[4] = target: S. cerevisiae Cenp-A nucleosome wrapped with the 147 bp Widom 601 sequence (S. cerevisiae) (UniProt P36012); experiment: AUC
[5] = target: 14 subunit-CCAN complex (constitutive centromere associated network), S. cerevisiae (S. cerevisiae) (UniProt P35201); experiment: AUC

- stoichiometry N [1]: 2
- stoichiometry N [2]: 2
- stoichiometry N (CCAN per Cenp-A^Nuc) [3]: 2
- stoichiometry N (CCAN per Cenp-A^Nuc) [4]: 1
- stoichiometry N [5]: 2
Substance: 14 subunit-CCAN complex (constitutive centromere associated network), S. cerevisiae (from UniProt P35201;Q12262;Q12748;P47167;P43618;Q2V2P8;P38265;P38907;Q06675;Q02732;P53298;P38313;Q12493;Q06162)
